In US20230357354A1, “CD38-BINDING CD31 PEPTIDES AND USES THEREOF” (ENCEFA, priority 2020, published 2023):

Test system: dopaminergic (TH^+) neurons in midbrain cultures
Test: MPP+ intoxication model: DA (TH+) cell survival in midbrain cultures
Format: cell-based, Wistar rat
Procedure: Animals were treated in accordance with the Guide for the Care and Use of Laboratory Animals (National Research Council, 1996), European Directive 86/609, and the guidelines of the local institutional animal care and use committee. Cultures were prepared from the ventral mesencephalon of gestational age 15.5 Wistar rat embryos (Janvier Breeding Center, Le Genest St Isle, France). Dissociated cells in suspension obtained by mechanical trituration of midbrain tissue pieces were seeded at a density of 1.2-1.5×10^5 cells/cm^2 onto tissue culture supports precoated with 1 mg/mL polyethylenimine diluted in borate buffer pH 8.3 as described (Michel et al., 1997. J Neurochem. 69(4):1499-507). The cultures were then maintained in N5 medium supplemented with 5 mM glucose, 5 % horse serum, and 0.5 % fetal calf serum, except for the first 3 DIV, when the concentration of fetal calf serum was 2.5% to favor initial maturation of the cultures (Guerreiro et al., 2008. Mol Pharmacol. 74(4):980-9). They were fed daily by replacing 70% of the medium. Routinely, mesencephalic cultures were established on Nunc 24-well culture plates (Thermofischer Scientific, Rochester, NY). Note that these cultures contain tyrosine hydroxylase (TH)^+ neurons that were exclusively dopaminergic (Traver et al., 2006. Mol Pharmacol. 70(1):30-40). […]

B1: murine sCD31: murine soluble CD31 (extracellular domain of CD31) having SEQ ID NO: 18, used in Example 1 (protein, listed as Mus musculus)
chain: MLLALGLTLVLYASLQAEENSFTINSIHMESLPSWEVMNGQQLTLECLVDISTTSKSRSQHRVLFYKDDAMVYNVTSREHTESYVIPQARVFHSGKYKCTVMLNNKEKTTIEYEVKVHGVSKPKVTLDKKEVTEGGVVTVNCSLQEEKPPIFFKIEKLEVGTKFVKRRIDKTSNENFVLMEFPIEAQDHVLVFRCQAGILSGFKLQESEPIRSEYVTVQESFSTPKFEIKPPGMIIEGDQLHIRCIVQVTHLVQEFTEIIIQKDKAIVATSKQSSEAVYSVMAMVEYSGHYTCKVESNRISKASSIMVNITELFPKPKLEFSSSRLDQGELLDLSCSVSGTPVANFTIQKEETVLSQYQNFSKIAEESDSGEYSCTAGIGKVVKRSGLVPIQVCEMLSKPSIFHDAKSEIIKGHAIGISCQSENGTAPITYHLMKAKSDFQTLEVTSNDPATFTDKPTRDMEYQCRADNCHSHPAVFSEILRVRVIAPVDEVVISILSSNEVQSGSEMVLRCSVKEGTSPITFQFYKEKEDRPFHQAVVNDTQAFWHNKQASKKQEGQYYCTASNRASSMRTSPRSSTLAVRVFL
modifications: Murine sCD31
- EC50 of prevention of MPP^+-induced DA cell loss (3 µM MPP^+ between 5 and 7 DIV): 0.036 µg/mL
- neuroprotective effect against MPP^+-induced DA cell death (MPP^+ 3 µM between 5 and 7 DIV, HB7 1 µg/mL): neuroprotective
